Columns and labels:
[1] = molecular target: LC3B-WT (mature, cleaved by ATG4B) (human, UniProt Q9GZQ8 1-120); assay: EMSA; 1 mM Mg2+, 2 uM probe; EMSA: 40 mM Tris pH 8.0, 30 mM KCl, 1 mM MgCl2, 0.01% NP-40, 1 mM DTT, 30 C 1 h; FP: same buffer without NP-40, 100 nM RNA final (200 nM stock diluted 1:2), pro
[2] = molecular target: LC3B-R/Q (human, UniProt Q9GZQ8 1-120, R68Q;R69Q;R70Q); assay: as above

AAUAAAAAUAAAAAUAAA (ssRNA) [Cy5-AAUAAAx3]: binds [1]; no binding [2].

Source: publication PMC8931120, “LC3B is an RNA-binding protein to trigger rapid mRNA degradation during autophagy”
